Laboratory results as given in article PMC11064669.

Legend:
[1] = target: LC3B residues 1-120 F52A/L53A (UniProt Q9GZQ8); assay: ITC
LC3B residues 1-120 WT = LC3B residues 1-120 WT (UniProt Q9GZQ8); assay: ITC

Kd [1]: > 300 µM
Kd (LC3B residues 1-120 WT): 44.4 µM
stoichiometry N (LC3B residues 1-120 WT): 0.523
Substance: tepsin LIR motif peptide (residues 185-193)
